Molecular target: T1, GST-OsARF24 (Oryza sativa (rice), UniProt Q2QQX6 1-841)
T1 sequence: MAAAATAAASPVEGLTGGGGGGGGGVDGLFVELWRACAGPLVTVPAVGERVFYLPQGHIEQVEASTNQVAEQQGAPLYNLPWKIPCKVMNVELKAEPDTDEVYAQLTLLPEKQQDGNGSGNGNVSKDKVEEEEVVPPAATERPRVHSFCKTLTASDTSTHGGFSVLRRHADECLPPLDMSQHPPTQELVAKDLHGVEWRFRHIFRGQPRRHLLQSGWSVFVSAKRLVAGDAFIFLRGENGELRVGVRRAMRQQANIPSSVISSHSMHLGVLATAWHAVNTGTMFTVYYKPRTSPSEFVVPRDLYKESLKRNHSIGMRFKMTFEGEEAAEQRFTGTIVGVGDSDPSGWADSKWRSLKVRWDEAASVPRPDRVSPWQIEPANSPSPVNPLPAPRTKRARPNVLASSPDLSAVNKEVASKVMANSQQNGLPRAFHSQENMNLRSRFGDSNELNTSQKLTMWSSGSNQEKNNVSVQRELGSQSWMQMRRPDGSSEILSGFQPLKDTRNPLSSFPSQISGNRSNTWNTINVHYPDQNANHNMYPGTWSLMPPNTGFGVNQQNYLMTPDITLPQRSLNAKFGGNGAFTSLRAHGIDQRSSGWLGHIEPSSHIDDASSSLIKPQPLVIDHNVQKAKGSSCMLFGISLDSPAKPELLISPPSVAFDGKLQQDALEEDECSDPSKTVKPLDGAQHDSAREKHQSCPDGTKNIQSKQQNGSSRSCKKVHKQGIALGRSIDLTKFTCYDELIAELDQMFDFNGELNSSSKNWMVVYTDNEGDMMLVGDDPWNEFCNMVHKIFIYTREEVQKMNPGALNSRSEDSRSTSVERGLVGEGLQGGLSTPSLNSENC
Experiment: EMSA

B1: ARF probe (OsMAP1/OsMPK3 promoter) (dsDNA)
DNA 1: TCATCGCCTTGCTGTCTCTGCGAATCGAGA
DNA 2: TCTCGATTCGCAGAGACAGCAAGGCGATGA
B1: binds.
